Measurements published in the Human Domainome abundance scans (Beltran et al. 2025).

B1: Formin-binding protein 4, residues 200 to 261; numbered along this chain, Q8N3X1 (parent)
chain: SGWQYDTQCSLAGVGIEMGDWQEVWDENTGCYYYWNTQTNEVTWELPQYLATQVQGLQHYQP

Variants of: B1
Experiment: abundance fitness (aPCA) (normalised: wild type 0, dead -1); higher = more abundant; growth selection in yeast, the domain comes from the species named
Details: Homo sapiens

Abundance fitness: each site, then its substitutions
G30: S 0.006, H -0.718, L -0.4, A -0.095, Y -0.473, V -0.191, R 0.078, F -0.381, Q 0.049, I 0.052, W -0.23, K 0.129, N -0.15, P -0.219
N36: Q -0.121, W -0.814, V -1.02, R -0.657, D -0.612, S -0.553, G -0.64, L -0.861, T -0.993, F -0.744, Y -0.961, M -0.603, K -0.663, A -0.645, P -0.897, I -1.13, E -0.287, C -0.236
M18: W 0.025, K -0.618, E -0.534, C -0.549, Y -0.53, H -0.432, Q -0.69, R -0.643, N -0.869, I -0.247, F -0.278, L -0.313, G -0.545, A -0.685, P -0.264, T -0.132, S -0.586
Y33: R -0.201, L -0.477, P -0.676, T -0.335, M -0.316, Q -0.389, H -0.169, C -0.213, E -0.458, G -0.576, A -0.691, V -0.447, S -0.212, F -0.281, K 0.016, W -0.52, D -0.706, I -0.566
E23: P -0.697, Q -0.431, L -0.637, Y -0.58, H -0.443, W -1.06, I -0.759, F -0.511, R -0.59, A -0.817, T -0.582, M -0.964, V -1.07, C -0.862, S -0.682
W25: N -0.853, V -0.358, C -0.263, R -0.287, K -0.014, F -0.142, P -0.376, Y -0.209, S -0.294, L -0.119, I -0.251, A -0.207, M -0.129, T -0.381, H -0.256, G -0.557, D -0.252, E -0.414
C31: T -0.094, G -0.125, R 0.165, W -0.662, E -0.422, A 0.01, I -0.326, S 0.031, M -0.127, Q -0.038, Y -0.063, H -0.017, P -0.742, K 0.066, N 0.107, F 0.083, L -0.183, V -0.129
Q22: E 0.042, P -0.905, V 0.063, M -0.217, S -0.136, T -0.137, C -0.459, A -0.121, W -0.61, R 0.006, F -0.423, Y -0.586, G -0.234, D -0.371, L -0.315, N -0.023, H -0.641
D26: Y -0.322, K -0.345, C -0.228, Q -0.181, G -0.373, P -1.14, V -0.384, N -0.084, W -0.256, R -0.515, I -0.593, T -0.178, M -0.09, L -0.5, F -0.296, A -0.176, S -0.007, E -0.148
N28: G 0.073, Y -0.245, M -0.32, H -0.229, L -0.233, V -0.507, I 0.281, S -0.151, C -0.022, D -0.002, T -0.153, W -0.291, F -0.329, K 0.108, P -0.133, E -0.07
T29: G -0.147, S 0.123, I -0.382, Q -0.125, M -0.1, R 0.117, A 0.162, K 0.311, H -0.017, F -0.074, L -0.036, W -0.362, C -0.066, P -0.172, N -0.086, Y 0.019
W21: A -0.948, G -0.791, F -0.313, I -0.859, C -0.804, P -0.812, M -0.498, E -1.03, H -0.297, Y -0.066, L -0.847, R -0.811, D -0.716, T -0.792, N -1.1, V -0.82, K -1.05
E27: T -0.199, A 0.043, Y -0.288, W -0.601, I -0.174, H 0.516, P -0.349, K 0.076, F -0.319, N -0.127, L -0.429, M -0.381, D 0.101, V -0.373, G -0.066, Q -0.168, C -0.213, R -0.112, S -0.187
Y34: H -0.873, V -0.669, Q -0.946, M -0.962, D -1, S -0.862, A -0.866, P -1.21, T -0.847, F -0.18, E -0.791, G -0.664, C -0.927, W -0.449, L -0.796, K -0.726
V24: P -1.05, G -0.269, W -0.437, E -0.217, F -0.168, R -0.145, M -0.361, A -0.409, D -0.215, N -0.257, Q 0.097, H -0.163, Y -0.145, L -0.074, T -0.036, I -0.399
D20: E -0.162, S -0.295, P -0.252, F 0.15, M -0.29, Q -0.287, N -0.264, G -0.254, C -0.162, H -0.043, T -0.339, V -0.237, A -0.3, I -0.579, Y -0.217, K -0.287, W -0.143, R -0.022, L -0.383
T37: A 0.061, G -0.135, H -0.009, E -0.297, K 0.09, F -0.151, C 0.089, D -0.171, I -0.022
Y32: V -0.677, G -0.678, T -0.773, E -0.673, Q -0.818, H -0.16, I -0.3, L -0.633, S -0.567, C -0.478, A -0.502, K -1.02, W -0.543, R -0.792, M -0.511, N -0.487, P -0.417, F -0.009
G19: I -0.769, T -0.782, M -0.525, Y -0.96, A -0.091, H -0.642, F -0.794, E -0.4, P -0.897, C -0.918, W -0.992, R -0.722, S -0.454, N -0.676, D -0.362
E17: S -0.151, V -0.237, Y -0.838, W -0.403
W35: A 0.196, D -0.159, E 0.328, L -0.112, Y -0.271, R 0.184, F 0.112, S 0.066, I 0.09, G -0.297, M -0.189, K 0.355, P -1.04, H 0.166, T 0.172, V -0.104
